How the values were obtained:
Experiment in all cases: immunostaining of cells or tissue
[1] = target: plasma membrane-targeted version of rat VGLUT3 (Rattus norvegicus, UniProt Q7TSF2)
[2] = target: plasma membrane-targeted version of rat VGLUT2 (Rattus norvegicus, UniProt Q9JI12, point mutant)
[3] = target: plasma membrane-targeted version of rat VGLUT1 (Rattus norvegicus, UniProt Q62634)
plasma membrane-targeted version of rat VGLUT1, sequence (Q62634 whole entry): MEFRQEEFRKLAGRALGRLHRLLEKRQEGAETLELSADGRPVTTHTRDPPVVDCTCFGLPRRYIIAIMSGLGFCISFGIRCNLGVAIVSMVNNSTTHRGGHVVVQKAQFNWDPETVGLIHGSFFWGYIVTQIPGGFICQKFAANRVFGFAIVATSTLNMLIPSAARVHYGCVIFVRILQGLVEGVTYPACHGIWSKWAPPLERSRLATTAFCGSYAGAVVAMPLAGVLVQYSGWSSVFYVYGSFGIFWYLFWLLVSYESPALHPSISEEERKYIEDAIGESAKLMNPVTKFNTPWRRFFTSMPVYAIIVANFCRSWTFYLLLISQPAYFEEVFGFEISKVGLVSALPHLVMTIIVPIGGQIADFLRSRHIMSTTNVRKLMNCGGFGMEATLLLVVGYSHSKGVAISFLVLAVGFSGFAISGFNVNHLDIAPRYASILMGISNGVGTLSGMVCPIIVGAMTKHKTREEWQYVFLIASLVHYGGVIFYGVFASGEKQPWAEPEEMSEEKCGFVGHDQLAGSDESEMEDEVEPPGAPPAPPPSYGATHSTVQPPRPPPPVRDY

plasma membrane-targeted version of rat VGLUT3, sequence (Q7TSF2 whole entry): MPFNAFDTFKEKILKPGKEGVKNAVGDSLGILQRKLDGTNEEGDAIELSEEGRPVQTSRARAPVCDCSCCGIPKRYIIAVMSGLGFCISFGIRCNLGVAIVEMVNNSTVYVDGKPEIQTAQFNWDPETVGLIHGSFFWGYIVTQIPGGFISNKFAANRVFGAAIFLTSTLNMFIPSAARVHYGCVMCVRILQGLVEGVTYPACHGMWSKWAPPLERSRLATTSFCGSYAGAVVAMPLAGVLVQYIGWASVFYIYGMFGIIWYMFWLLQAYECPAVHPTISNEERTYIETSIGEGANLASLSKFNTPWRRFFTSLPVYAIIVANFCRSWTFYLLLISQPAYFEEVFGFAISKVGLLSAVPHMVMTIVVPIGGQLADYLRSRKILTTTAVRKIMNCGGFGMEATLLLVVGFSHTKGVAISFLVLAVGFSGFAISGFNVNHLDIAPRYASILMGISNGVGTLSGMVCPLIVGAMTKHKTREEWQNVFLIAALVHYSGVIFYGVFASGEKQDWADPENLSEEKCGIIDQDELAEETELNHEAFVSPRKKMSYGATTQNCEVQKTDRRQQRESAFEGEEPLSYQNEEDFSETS
plasma membrane-targeted version of rat VGLUT2, sequence (Q9JI12 whole entry, change not shown): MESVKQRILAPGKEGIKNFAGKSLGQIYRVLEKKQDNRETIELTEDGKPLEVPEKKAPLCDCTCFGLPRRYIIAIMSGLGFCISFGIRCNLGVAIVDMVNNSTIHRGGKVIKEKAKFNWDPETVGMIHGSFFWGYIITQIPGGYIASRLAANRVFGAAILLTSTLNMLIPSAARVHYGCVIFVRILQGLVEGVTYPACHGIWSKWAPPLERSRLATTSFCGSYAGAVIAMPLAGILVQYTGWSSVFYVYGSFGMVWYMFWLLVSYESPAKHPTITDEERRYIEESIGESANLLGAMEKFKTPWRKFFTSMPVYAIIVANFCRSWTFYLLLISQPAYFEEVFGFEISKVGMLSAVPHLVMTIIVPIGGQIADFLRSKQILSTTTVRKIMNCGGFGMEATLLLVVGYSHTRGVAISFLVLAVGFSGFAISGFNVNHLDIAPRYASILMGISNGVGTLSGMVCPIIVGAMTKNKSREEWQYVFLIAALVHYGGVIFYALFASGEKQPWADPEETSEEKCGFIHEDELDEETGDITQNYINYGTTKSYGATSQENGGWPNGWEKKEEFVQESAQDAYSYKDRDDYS

Row | binding result [1] | binding result [2] | binding result [3] | Binder
1 | no binding | binds | binds | monoclonal antibody 9C6 (antibody, V domains shown) VH: EVMLVESGGGLVKPGGSLKISCAASGFTFSWYAMSWVRQTPEKRLEWVATISSAGSYTYYPDSVKGRFTISRDNAKNTLYLQMSSLRSEDTAMYYCSRVPILGRVDYWGQGTTLTVSS VL: QIVLTQSPAIMSASPGEKVTMTCSASSSVTYMHWYQQKSGTSPKTWIYDSSRLASGVPARFSGSGSGTSYSLTISSMEAEDAATYYCQHWSSNPPIFTFGSGTKLEIK
2 | no binding | – | binds | monoclonal antibody 8E11 (antibody, V domains shown) VH: EVMLVESGGGLVKPGGSLKISCAASGFTFSWYAMSWVRQTPEKRLEWVATISSAGSYTYYPDSVKGRFTISRDNAKNTLYLQMSSLRSEDTAMYYCSRVPILGRVDYWGQGTTLTVSS VL: QIVLTQSPAFMSASPGEKVTMTCSASSSVTYMNWYQQKSGTSPKTWIYDSSRLASGVPPRFSGSGSGTSYSLTISSMEAEDAATYYCQQWSSNPPIFTFGSGTKLEIK

Source: paper PMC8823281 (Biochemistry, 2021)
